According to US9791436B2, “Protease-based biosensor” (priority 2012, dated 2017):

B1: 68-GP: thrombin-inducible autoinhibited TVMV biosensor, SEQ ID NO: 4 (protein)
chain: SSGSKALLKGVRDFNPISACVCLLENSSDGHSERLFGIGFGPYIIANQHLFRRNNGELTIKTMHGEFKVKNSTQLQMKPVEGRDIIVIKMAKDFPPFPQKLKFRQPTIKDRVCMVSTNFQQKSVSSLVSESSHIVHMRDTSFWQHWITTKDGQCGSPLVSIIDGNILGIHSLTHTTNGSNYFVEFPEKFVATYLDAADGWCKNWKFNADKISWGSFILWEDSGLVPRGVSGEGEYVRFGPGSTHHHHHH
modifications: protease construct
B2: 68-AP: thrombin-inducible autoinhibited TVMV biosensor, SEQ ID NO: 5 (protein)
chain: SSGSKALLKGVRDFNPISACVCLLENSSDGHSERLFGIGFGPYIIANQHLFRRNNGELTIKTMHGEFKVKNSTQLQMKPVEGRDIIVIKMAKDFPPFPQKLKFRQPTIKDRVCMVSTNFQQKSVSSLVSESSHIVHMRDTSFWQHWITTKDGQCGSPLVSIIDGNILGIHSLTHTTNGSNYFVEFPEKFVATYLDAADGWCKNWKFNADKISWGSFILWEDSGLVPRGVSGEGEYVRFAPGSTHHHHHH
modifications: protease construct
B3: H6-143: thrombin-inducible autoinhibited TVMV biosensor, SEQ ID NO: 6 (protein)
chain: SSGSKALLKGVRDFNPISACVCLLENSSDGHSERLFGIGFGPYIIANQHLFRRNNGELTIKTMHGEFKVKNSTQLQMKPVEGRDIIVIKMAKDFPPFPQKLKFRQPTIKDRVCMVSTNFQQKSVSSLVSESSHIVHKEDTSFWQHWITTKDGQCGSPLVSIIDGNILGIHSLTHTTNGSNYFVEFPEKFVATYLDAADGWCKNWKFNADKISWGSFYLYEDAPEDFMSGLVPRGVGREYVRFAPGSTHHHHHH
modifications: protease construct
B4: H6-AP: thrombin-inducible autoinhibited TVMV biosensor, SEQ ID NO: 1 (protein)
chain: SSGSKALLKGVRDFNPISACVCLLENSSDGHSERLFGIGFGPYIIANQHLFRRNNGELTIKTMHGEFKVKNSTQLQMKPVEGRDIIVIKMAKDFPPFPQKLKFRQPTIKDRVCMVSTNFQQKSVSSLVSESSHIVHKEDTSFWQHWITTKDGQCGSPLVSIIDGNILGIHSLTHTTNGSNYFVEFPEKFVATYLDAADGWCKNWKFNADKISWGSFTLVEDAPEDFMSGLVPRGVGRETVRFAPGSTHHHHHH
modifications: protease construct
B5: H6-68: thrombin-inducible autoinhibited TVMV biosensor, SEQ ID NO: 7 (protein)
chain: SSGSKALLKGVRDFNPISACVCLLENSSDGHSERLFGIGFGPYIIANQHLFRRNNGELTIKTMHGEFKVKNSTQLQMKPVEGRDIIVIKMAKDFPPFPQKLKFRQPTIKDRVCMVSTNFQQKSVSSLVSESSHIVHKEDTSFWQHWITTKDGQCGSPLVSIIDGNILGIHSLTHTTNGSNYFVEFPEKFVATYLDAADGWCKNWKFNADKISWGSFILWEDAPEDFMSGLVPRGVGREYVRFAPGSTHHHHHH
modifications: protease construct
B6: 2B4-AP: thrombin-inducible autoinhibited TVMV biosensor, SEQ ID NO: 3 (protein)
chain: SSGSKALLKGVRDFNPISACVCLLENSSDGHSERLFGIGFGPYIIANQHLFRRNNGELTIKTMHGEFKVKNSTQLQMKPVEGRDIIVIKMAKDFPPFPQKLKFRQPTIKDRVCMVSTNFQQKSVSSLVSESSHIVHMRDTSFWQHWITTKDGQCGSPLVSIIDGNILGIHSLTHTTNGSNYFVEFPEKFVATYLDAADGWCKNWKFNADKISWGSFTLVEDAPSGLVPRGVSGEGETVRFAPGSTHHHHHH
modifications: protease construct
B7: 2B4-GP: thrombin-inducible autoinhibited TVMV biosensor, SEQ ID NO: 2 (protein)
chain: SSGSKALLKGVRDFNPISACVCLLENSSDGHSERLFGIGFGPYIIANQHLFRRNNGELTIKTMHGEFKVKNSTQLQMKPVEGRDIIVIKMAKDFPPFPQKLKFRQPTIKDRVCMVSTNFQQKSVSSLVSESSHIVHMRDTSFWQHWITTKDGQCGSPLVSIIDGNILGIHSLTHTTNGSNYFVEFPEKFVATYLDAADGWCKNWKFNADKISWGSFTLVEDAPSGLVPRGVSGEGETVRFGPGSTHHHHHH
modifications: protease construct
B8: SH3-TVMV-AC-AI-37-2: SH3-domain-tagged TVMV-based allosteric receptor, SEQ ID NO: 28 (protein)
chain: SGGSGAEYVRALFDFNGNDEEDLPFKKGDILRIRDKPEEQWWNAEDSEGKRGMIPVPYVEKYRPASASVSALIGGRGGSGGSGGSGGSGGSGGSSKALLKGVRDFNPISACVCLLENSSDGHSERLFGIGFGPYIIANQHLFRRNNGELTIKTMHGEFKVKNSTQLQMKPVEGRDIIVIKMAKDFPPFPQKLKFRQPTIKDRVCMVSTNFQQKSVSSLVSESSHIVHKEDTSFWQHWITTKDGQCGSPLVSIIDGNILGIHSLTHTTNGSNYFVEFPEKFVATYLDAADGWCKNWKFNADKISWGSFILWESGSPELGFSISGGVGGRGNPFRPDDDGIFVTRVQPEGPASKLLQPGDKIIQANGYSFINIEHGQAVSLLKTFQNTVELIIVREVGNGAKQEIRVRVEKDGGSGGGGVSSVPTNLEVVAATPTSLLISWDAYRELPVSYYRITYGETGGNSPVQEFTVPGSKSTATISGLKPGVDYTITVYAHYNYHYYSSPISINYRGPGREYVRFAPGSTHHHHHH
modifications: protease construct

target: T1, bovine thrombin (Bos taurus, UniProt P00735); assay: Thrombin induction of autoinhibited TVMV-based biosensor protease activity (quenched fluorescent TVMV substrate); type: biochemical; conditions: biosensor 1 μM, 10 μM protease substrate, presence vs absence of bovine thrombin (1 U per 200 μL)
T1 construct: addition of bovine thrombin (1 U per 200 μL)
Procedure: Libraries of autoinhibited TVMV mutants were transformed into chemically competent BL21(DE3)-RIL cells hosting the autolysis plasmid 05665 (FIG. 2A) and plated onto LB agar plates supplemented with 100 μg/mL carbenicillin, 50 μg/mL kanamycin and 34 μg/mL chloramphenicol. Following overnight incubation at 37° C., single colonies were inoculated into 96 deep-well plates filled with minimal auto-induction medium (1 mL) which was supplemented with 100 μg/mL carbenicillin, 50 μg/mL kanamycin and 34 μg/mL chloramphenicol. Cells were left to grow for 72 h at 30° C. at 320 rpm and typically reached OD values of approximately 10. To lyse cells, aliquots of cell cultures (100 μL) from half a 96-well-plate (48 samples) were diluted two-fold into autolysis medium (100 μL) and left to incubate for 90 min at 30° C. at 200 rpm. Aliquots of cell lysates (10 μL) were duplicated after transferring them into separate halves of a black 96-well-plate filled with protease assay buffer (140 μL). One of the halves additionally contained 1 U thrombin in order to cleave the linker connecting TVMV to its autoinhibition domain and relieve autoinhibtion. The reaction was initiated following the addition of substrate solution (50 μL) which gave rise to 10 μM TVMV substrate peptide in the final reaction. The reaction was monitored using a fluorometer (Biotek Synergy 4) by measuring the release of a quenched fluorophore (7-Methoxycoumarinyl-4-acetyl) at 405 nm following excitation at 330 nm. The induction of TVMV-based protease activities was evaluated by comparing the time course of the reactions in the presence and absence of thrombin. The plasmids encoding for desirable mutants were subsequently isolated from single colonies and their identity confirmed by Sanger sequencing.
To measure induction ratios under saturating reaction conditions, TVMV- and HCV-based signal transducers (5 μg) were pre-incubated for 10 min in 150 μL protease assay buffer (50 mM Tris-HCl, 1 mM DTT and 0.5 mM EDTA, pH 8.0 for TVMV, and 50 mM Tris-HCl, 50 mM NaCl and 1 mM DTT, pH 8.0 for HCV) in the presence and absence of the inducing protease: i.e. 1 U thrombin, 1 U Factor Xa, 5 μg PSA, 1 μg MMP-7 and 1 μg for MMP-9 for TVMV-based signal transducers as indicated, and 5 μg TVMV for HCV-based signal transducers. The reaction was initiated following the addition of 50 μL substrate solution that contained 40 μM peptide substrate and gave rise to 10 μM peptide substrate in a final reaction volume of 200 μL. The reaction was monitored using a fluorometer (Biotek Synergy 4) by measuring the release of 7-Methoxycoumarinyl-4-acetyl from the quenched substrate peptide at 405 nm following excitation at 330 nm. The induction ratio of TVMV-based protease activities in the inhibited and uninhibited state was evaluated by comparing the reaction in the presence and absence of the activating protease. Activity traces labelled as ‘Background’ generally denote control samples that contain peptide substrate, but no enzyme.
The biosensor (1 μM) was incubated together with 10 μM protease substrate in 50 mM Tris-HCl, 1 mM DTT and 0.5 mM EDTA. Relief of autoinhibition was achieved upon addition of bovine thrombin (1 U per 200 μL).

**Q.** How did the “Fold Induction” value turn out when B1 was run?
**A.** ~60 fold

**Q.** With B2 as the molecule, how does the “Fold Induction” value read?
**A.** ~100 fold

**Q.** With B3 as the molecule, how does the “Fold Induction” value read?
**A.** ~60 fold

**Q.** For B4, which “Fold Induction” value is on record?
**A.** ~50 fold

**Q.** Which “Fold Induction” value does the source give for B5 here?
**A.** ~150-200 fold

**Q.** With B6 as the molecule, how does the “Fold Induction” value read?
**A.** ~25 fold

**Q.** Which “Fold Induction” value does the source give for B7 here?
**A.** ~17 fold

target: T2, PDZ ligand peptide-1 (RGSIDTWV) (Homo sapiens, UniProt Q96RT1); assay: Protease signalling cascade: SH3-tagged TVMV-based allosteric receptor coupled to HCV-based signal amplifier, ligand titration; type: biochemical; conditions: not given
T2 construct: made in house; host or cells: E. coli BL21(DE3)-RIL
Procedure: Signalling cascades consisting of SH3-domain-tagged TVMV-based allosteric receptors (10 nM) and SH3-peptide-tagged TVMV-inducible HCV-based signal transducers (200 nM) were measured in protease assay buffer consisting of 50 mM Tris-HCl, 200 mM NaCl and 1 mM DTT, pH 8.0. The reaction was strictly initiated by simultaneously adding the TVMV-based allosteric receptor and HCV substrate peptide to a final concentration of 10 μM along with the PDZ ligand peptide-1 ([…]) at a final concentration of 10 μM. To determine the KD of TVMV-based allosteric receptors, the PDZ ligand peptide-1 ([…]) was suitably diluted over a concentration range from 2 nM to 400 nM as indicated in FIG. 13B. To determine the KD, initial rates were plotted against ligand concentrations and the fitted values analysed by non-linear regression assuming a one-site specific binding model (GraphPad Prism 5).

**Q.** For B8, which “improvement of the sensitivity of the assay” value is on record?
**A.** 20 fold

same assay, conditions: FIG. 13B

**Q.** How did the “concentration of receptor faithfully detected” value turn out when B8 was run?
**A.** 5 nM
